Measurements: publication doi:10.1101/2021.12.07.471597 (bioRxiv, 2021)

Key:
VHH72.71-Fc = VHH72.71-Fc (llama); experiment: BLI
VHH72.66-Fc = VHH72.66-Fc (llama); experiment: BLI
VHH72.65-Fc = VHH72.65-Fc (llama); experiment: BLI
VHH72-Fc = VHH72-Fc (llama); experiment: BLI
VHH72.6-Fc = VHH72.6-Fc (llama); experiment: BLI
VHH72.76-Fc = VHH72.76-Fc (llama); experiment: BLI
[1] = target: biotinylated SARS-CoV-2 RBD (Wuhan) (SARS-CoV-2, UniProt P0DTC2, biotin); experiment: flow cytometry on cells

Measured: binding result

B1: SARS-CoV-1 RBD (domain or fragment)
chain: not shown
not listed: [1]
binds: all other assays above

B2: VHH72 displayed on yeast (VHH)
VHH: QVQLQESGGGLVQAGGSLRLSCAASGRTFSEYAMGWFRQAPGKEREFVATISWSGGSTYYTDSVKGRFTISRDNAKNTVYLQMNSLKPDDTAVYYCAAAGLGTVVSEWDYDYDYWGQGTQVTVSS
binds: [1]
